Where two headings read alike, the source gives them in different places.
Key:
RSV A2 pre-F [1] = target: T1, RSV A2 pre-F (Respiratory syncytial virus A2); assay: BLI
RSV A2 pre-F [2] = target: T1, RSV A2 pre-F; assay: ELISA
RSV A2 pre-F [3] = target: T1, RSV A2 pre-F; assay: BLI; remark: listed apart in the source
RSV A2 pre-F [4] = target: T1, RSV A2 pre-F; assay: ELISA; remark: listed apart in the source

Binder | Kd (RSV A2 pre-F [1]) [nM] | EC50 (RSV A2 pre-F [2]) [µg/mL] | Kd (RSV A2 pre-F [3]) [nM] | EC50 (RSV A2 pre-F [4]) [µg/mL]
F6-10 (antibody, V domains shown) VH: DALLLQSGGGLMQPGGSLRLSCAASEFTFNIHAMTWVRQSPGKGLEWVSGISSTGEGTYYTDSVKGRFTISRDNSKSTLYLQMNSLRAEDTATYFCARYSFRYGELRGTFDIWGQGVLVSVSS VL: DIQMTQTPSTLSASVGDRVIITCRASQSVGDSVAWFQQKPGRAPKLLIYDTTNLERGVPSRFSGSFSGTAFTLTITRLQPDDFATYYCQQYDESWTFGQGTKVEVK | 0.994 | 0.0307 |  | 
F6-113 (antibody, V domains shown) VH: QVQLQQWGAGLLKPSETLSLTCAVDGASVSDDDWTWIRQSPGKGLEWIGQIDQTGSFNYNPSLRSRVTISPDTSKNHFSLSLTSVTAADTALYYCARGGLVVTDVGQGWDAFDVWGQGTMVTVSS VL: DIQLTQSPSSVSASVGDRITITCRASQDIDNWLAWYQQKPGEAPKLLIYAASTLQSGVPSRFSGSGAGTEFTLTITSLQPEDFAGYFCQQGDSFPLTFGGGTKVDIK | < 0.001 | 0.0133 |  | 
F6-125 (antibody, V domains shown) VH: QLQLVQSGTEVKKPGASVKVSCKASGYTFSDNAINWVRQAPGQGLEWLGWITANNGNTNYAQKIQGRVTMTTDTSTSTVYMELRSLGSDDTAVYYCAREVVNYGLGSLHFDYWGQGTLVTVSS VL: SYELTQPPSVSVSPGQTVSISCSGDKLGNDYASWYQQKPGQSPLLVIYEDAKRPSGIPERFSGSNSGNTATLTISGTQAMDDADYYCQAWDGTTVIFGGGTKLTVL | < 0.001 | 0.0144 |  | 
F6-18 (antibody, V domains shown) VH: EEQLVESGGGLVRPGGSLRLSCVASGFSVSDYGMHWVRQAPGRGLEYVSAIRSHGDGTYYVNSVKGRFIISRDNSKNTLYLQMGSLSAEDMAVYYCARDRVWAHDYDDTAWLDAFDLWGQGTTVIVSS VL: DIQMTQSPSTLSASVGDKVTITCRASQSVGSLLAWYQQKPGKAPKLLIYDASNLQRGVPSRFSGSGSGTEFTLTISSLQPDDFATYYCQQYKSHSPPFGQGTKLEIK |  |  | 0.0805 | 0.016
MEDI8897 (antibody, V domains shown) VH: QVQLVQSGAEVKKPGSSVMVSCQASGGLLEDYIINWVRQAPGQGPEWMGGIIPVLGTVHYGPKFQGRVTITADESTDTAYMELSSLRSEDTAMYYCATETALVVSETYLPHYFDNWGQGTLVTVSS VL: DIQMTQSPSSLSAAVGDRVTITCQASQDIVNYLNWYQQKPGKAPKLLIYVASNLETGVPSRFSGSGSGTDFSLTISSLQPEDVATYYCQQYDNLPLTFGGGTKVEIKR | 0.379 | 0.0313 | 0.122 | 0.0146

From US20260347439 (published 2026)
